In publication PMC3214623:

Tests used:
[1] = molecular target: porcine beta-2 microglobulin (pig) (UniProt Q07717); experiment: radioligand binding
[2] = molecular target: human beta-2 microglobulin (human) (UniProt P61769); experiment: radioligand binding
Chain of UniProt P61769 (P61769 21-119): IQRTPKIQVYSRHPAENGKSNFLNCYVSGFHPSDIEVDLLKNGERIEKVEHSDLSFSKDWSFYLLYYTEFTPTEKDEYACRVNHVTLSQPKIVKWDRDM

Chain of UniProt Q07717 (Q07717 21-118): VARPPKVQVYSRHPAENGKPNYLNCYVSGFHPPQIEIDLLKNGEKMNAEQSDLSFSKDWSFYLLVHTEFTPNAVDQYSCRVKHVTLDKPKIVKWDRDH

Substance: chimeric MHC-I heavy chain HHP (HLA-A*11:01 α1α2, SLA-1*0401 α3) (domain or fragment)
- affinity (half-saturation of the heavy chain titration) [1]: 0.774 nM
- affinity (half-saturation of the heavy chain titration) [2]: 1.19 nM

Substance: HLA-A*11:01 heavy chain, residues 1-275 (HHH) (domain or fragment)
- affinity (half-saturation of the heavy chain titration) [1]: 2.11 nM
- affinity (half-saturation of the heavy chain titration) [2]: 1.07 nM
